Patent US20190263922A1 (TIGA TX, published 2019)
Each block holds one binder with its values, some of them ahead of it.

Tests used:
human CD20 [1] = target: T1, human CD20 (human, UniProt P11836 1-297); assay: FACS on Daudi cells, dilution series
T1 construct: whole, on cells; Always presented on cells; also called MS4A1; CD20 WT
T1 sequence (looked up): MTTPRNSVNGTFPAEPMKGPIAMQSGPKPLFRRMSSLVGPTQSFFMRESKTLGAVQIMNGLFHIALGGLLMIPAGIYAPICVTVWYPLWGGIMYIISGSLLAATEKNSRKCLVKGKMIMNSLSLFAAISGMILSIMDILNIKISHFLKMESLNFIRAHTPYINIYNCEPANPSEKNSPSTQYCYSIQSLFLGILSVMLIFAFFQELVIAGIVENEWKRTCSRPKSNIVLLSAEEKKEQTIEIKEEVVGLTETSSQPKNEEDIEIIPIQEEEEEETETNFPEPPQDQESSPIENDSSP
Procedure: FIG. 8. […] Binding was determined by FACS after incubation of Daudi cells with a dilution series of mAb.
10⁵ Daudi cells were plated out in a 96-well plate and incubated with IgG1-CD20 mAbs (in PBS) for 45 min on ice. After washing, bound CD20 mAbs were detected with goat-F(ab′)₂-anti-hIgG-RPE (Southern Biotech) and subsequently measured on a FACS Canto II (BD).

human CD20 [2] = target: T1, human CD20; assay: binding assay, parental against L11V version, data not shown
human CD20 [3] = target: T1, human CD20; assay: FACS on Ramos cells, dilution series
human CD20 [4] = target: T1, human CD20; assay: LigandTracer Green, 10 nM FITC-labeled mAb on SKBR3-CD20 cells, OneToOne fit, non-competitive dissociation
Procedure: (§1) Kinetics analysis of interactions between the mAbs and CD20 was performed by using the LigandTracer green Technology (Ridgeview Instruments AB). 10⁶ SKBR3-CD20 cells were seeded on one side of a 10 cm culture dish (Greiner) as target cell area and association of 10 nM FITC-labeled CD20 mAb was measured. For non-competitive or competitive dissociation, labeled mAb solution was replaced by RPMI culture medium or 100 nM unlabeled mAb of the same clone, respectively. Analysis was performed using an OneToOne fitting model in TraceDrawer (Ridgeview Instruments AB).
(§2) A slow Ab off-rate might favor the formation of Ab-Clq complexes, the first component of the classical complement pathway. […] To characterize interaction kinetics and affinity of mAbs, we used the LigandTracer technology to record real-time binding and dissociation of Abs to cellular receptors.

human CD20 [5] = target: T1, human CD20; assay: LigandTracer Green, 10 nM FITC-labeled mAb on SKBR3-CD20 cells, OneToOne fit, competitive dissociation (100 nM unlabeled mAb of the same clone)
Procedure: as §1, §2

B1: IgG1-CD20-9 (antibody, V domains shown)
VH: QAYLQQSGAELVRPGASVKMSCKASGYTFPSYNMHWVKQTPRQGLEWIGAIYPGNGDTSYNQKFKGKASQTVDKSSSTVYMQLSSLTSADSAVYFCARSRLFDSSYGWYFDVWGTGTTVTVSS
VL: QIVLSQSPAILSAYPGEKVTMTCRARSSVSYIDWYQQKAGSSPKPWIYATSNLASGVPARFSGSGSGTSYSLTISRVEAEDAATYYCQQWTSNPPTFGGGTKLEIKR
notes: Chimeric: human IgG1 constant region and human kappa light chain; also called chimerized version of m9
binding result (human CD20 [1]): binds

B2: IgG1-CD20-10 (antibody, V domains shown)
VH: QAYLQQSGADLVRPGASVKMSCKASGFTFPSYNLHWVKQTPRQGLEWIGAIYPGNGDTSYNQKFKGKATLTVDKSSSTAYMQLSSLTSEDSAVYFCARSAYYGSNVWFFDVWGTGTTVTVSS
VL: QIVLSQSPAILSASPGEKVTMTCRASSSVSYMDWYQQKPGSSPKPWIYATSNLASGVPTRFSGSGSGTSYSLTISRVEAEDAATYYCQQWISNPPTFGAGTKLDLKR
notes: Chimeric: human IgG1 constant region and human kappa light chain; also called chimerized version of m10
binding result (human CD20 [1]): binds

B3: IgG1-CD20-1 with the L11V mutation (antibody)
heavy: not shown
light: QIVLSQSPAVLFASPGEKVTMTCRARSSVSYMDWYQQKPRSSPKPWIYATSNLASGVPARFSGSGSGTSYSLTISRVEAEDAATYYCQQWTSNPPTFGSGTKLEIKRTVAAPSVFIFPPSDEQLKSGTASVVCLLNNFYPREAKVQWKVDNALQSGNSQESVTEQDSKDSTYSLSSTLTLSKADYEKHKVYACEVTHQGLSSPVTKSFNRGEC
notes: Chimeric human IgG1/kappa; leucine to valine at Kabat position 11 of the VH framework; also called IgG1-CD20-1 L11V
binding result (human CD20 [2]): binds

B4: IgA2 variant of m2 (IgA-CD20-2 as IgA2(m1)) (antibody)
heavy: QAYLQQSGAELVRPGASVKMSCKASGYTFTSYNMHWVKQTPRQGLEWIGGIYPGNGDTSYNQKFKGKATLTVDKSSSTAYMQLSSLTSEDSAVYFCARYYYGSSYGAMDYWGQGTSVTVSSASPTSPKVFPLSLDSTPQDGNVVVACLVQGFFPQEPLSVTWSESGQNVTARNFPPSQDASGDLYTTSSQLTLPATQCPDGKSVTCHVKHYTNPSQDVTVPCPVPPPPPCCHPRLSLHRPALEDLLLGSEANLTCTLTGLRDASGATFTWTPSSGKSAVQGPPERDLCGCYSVSSVLPGCAQPWNHGETFTCTAAHPELKTPLTANITKSGNTFRPEVHLLPPPSEELALNELVTLTCLARGFSPKDVLVRWLQGSQELPREKYLTWASRQEPSQGTTTFAVTSILRVAAEDWKKGDTFSCMVGHEALPLAFTQKTIDRLAGKPTHVNVSVVMAEVDGTCY
light: QIVLSQSPAILSASPGEKVTMTCRASSSVSYMHWYQQKPGSSPKPWIYATSNLASGVPARFSGSGSGTSYSLTISRVEAADAATYYCHQWTFNPPTFGGGTKLEIKRTVAAPSVFIFPPSDEQLKSGTASVVCLLNNFYPREAKVQWKVDNALQSGNSQESVTEQDSKDSTYSLSSTLTLSKADYEKHKVYACEVTHQGLSSPVTKSFNRGEC
notes: Monomeric human IgA2(m1) constant region (pEE14.4-IgA2(m1)) and human kappa light chain; also called IgA2-CD20 mAb; IgA2-CD20 UMAB002
binding result (human CD20 [3]): binds

B5: IgA1 variant of m2 (IgA-CD20-2 as IgA1) (antibody)
heavy: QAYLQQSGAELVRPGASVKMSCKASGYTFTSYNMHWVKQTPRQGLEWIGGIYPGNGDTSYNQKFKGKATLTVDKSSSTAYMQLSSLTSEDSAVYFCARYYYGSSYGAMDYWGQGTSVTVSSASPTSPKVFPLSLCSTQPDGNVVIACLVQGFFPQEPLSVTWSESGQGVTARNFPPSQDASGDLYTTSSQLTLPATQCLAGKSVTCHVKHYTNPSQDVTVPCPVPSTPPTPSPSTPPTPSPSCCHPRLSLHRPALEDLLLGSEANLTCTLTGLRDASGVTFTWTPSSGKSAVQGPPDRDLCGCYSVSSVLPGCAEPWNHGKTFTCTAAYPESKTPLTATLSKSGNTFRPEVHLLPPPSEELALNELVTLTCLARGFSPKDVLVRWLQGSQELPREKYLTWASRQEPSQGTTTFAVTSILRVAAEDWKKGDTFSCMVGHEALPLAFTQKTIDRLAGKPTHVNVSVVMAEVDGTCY
light: QIVLSQSPAILSASPGEKVTMTCRASSSVSYMHWYQQKPGSSPKPWIYATSNLASGVPARFSGSGSGTSYSLTISRVEAADAATYYCHQWTFNPPTFGGGTKLEIKRTVAAPSVFIFPPSDEQLKSGTASVVCLLNNFYPREAKVQWKVDNALQSGNSQESVTEQDSKDSTYSLSSTLTLSKADYEKHKVYACEVTHQGLSSPVTKSFNRGEC
notes: Monomeric human IgA1 constant region (pEE14.4-IgA1) and human kappa light chain; also called IgA1-CD20 mAb; IgA1-CD20 UMAB002
binding result (human CD20 [3]): binds

B10: m10 (mIgG2c-CD20 mAb) (antibody, V domains shown)
VH: QAYLQQSGADLVRPGASVKMSCKASGFTFPSYNLHWVKQTPRQGLEWIGAIYPGNGDTSYNQKFKGKATLTVDKSSSTAYMQLSSLTSEDSAVYFCARSAYYGSNVWFFDVWGTGTTVTVSS
VL: QIVLSQSPAILSASPGEKVTMTCRASSSVSYMDWYQQKPGSSPKPWIYATSNLASGVPTRFSGSGSGTSYSLTISRVEAEDAATYYCQQWISNPPTFGAGTKLDLK
modifications: FITC-labelled in the LigandTracer assay; label sites not given
notes: Mouse IgG2c hybridoma mAb; FITC-labeled in LigandTracer
Kd (human CD20 [4]): 0.19 nM
koff (human CD20 [4]): 8.17e-06 s⁻¹
kon (human CD20 [4]): 44200 M⁻¹ s⁻¹
Kd (human CD20 [5]): 0.51 nM
koff (human CD20 [5]): 2.82e-05 s⁻¹
kon (human CD20 [5]): 55700 M⁻¹ s⁻¹

B12: IgG1-CD20-7 (antibody, V domains shown)
VH: QAYLQQSGAELVRPGASVKMSCKASGYTFASYNMHWIKQTPRQGLEWIAAIYPGNGDTSYNQKFKGKATLTVDKSSSTAYMQLSSLTSEDSAVYFCARTYYYGSSPYWSFDVWGTGTTVTVSS
VL: DIQMTQSPASLSASVGETVTVTCGASYNIYGALNWYQRKQGKSPQLLIYGATNLADGMSSRFSGSGSGRQYSLKISSLHPDDVATYYCQNVLSNPPTFGGGTKLEIKR
notes: Chimeric: human IgG1 constant region and human kappa light chain; also called chimerized version of m7
binding result (human CD20 [1]): binds

The next lines start with the values.

binding result (human CD20 [3]): binds
B6: IgA1 variant of m1 (IgA-CD20-1 as IgA1) (antibody)
heavy: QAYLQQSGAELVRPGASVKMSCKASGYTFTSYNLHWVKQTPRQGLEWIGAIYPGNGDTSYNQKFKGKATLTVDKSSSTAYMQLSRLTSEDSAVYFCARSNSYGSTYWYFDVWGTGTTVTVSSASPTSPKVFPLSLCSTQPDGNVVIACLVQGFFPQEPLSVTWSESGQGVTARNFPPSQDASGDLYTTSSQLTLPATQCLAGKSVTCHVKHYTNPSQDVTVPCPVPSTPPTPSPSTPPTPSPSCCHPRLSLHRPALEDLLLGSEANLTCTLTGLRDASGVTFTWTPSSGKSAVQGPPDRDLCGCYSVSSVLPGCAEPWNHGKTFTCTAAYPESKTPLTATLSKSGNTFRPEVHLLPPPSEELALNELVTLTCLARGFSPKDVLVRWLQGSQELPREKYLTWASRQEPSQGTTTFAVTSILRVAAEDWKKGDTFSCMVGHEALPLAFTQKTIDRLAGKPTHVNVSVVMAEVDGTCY
light: QIVLSQSPAVLFASPGEKVTMTCRARSSVSYMDWYQQKPRSSPKPWIYATSNLASGVPARFSGSGSGTSYSLTISRVEAEDAATYYCQQWTSNPPTFGSGTKLEIKRTVAAPSVFIFPPSDEQLKSGTASVVCLLNNFYPREAKVQWKVDNALQSGNSQESVTEQDSKDSTYSLSSTLTLSKADYEKHKVYACEVTHQGLSSPVTKSFNRGEC
notes: Monomeric human IgA1 constant region (pEE14.4-IgA1) and human kappa light chain; also called IgA1-CD20 mAb; IgA1-CD20 UMAB001

binding result (human CD20 [3]): binds
B7: IgA2 variant of m1 (IgA-CD20-1 as IgA2(m1)) (antibody)
heavy: QAYLQQSGAELVRPGASVKMSCKASGYTFTSYNLHWVKQTPRQGLEWIGAIYPGNGDTSYNQKFKGKATLTVDKSSSTAYMQLSRLTSEDSAVYFCARSNSYGSTYWYFDVWGTGTTVTVSSASPTSPKVFPLSLDSTPQDGNVVVACLVQGFFPQEPLSVTWSESGQNVTARNFPPSQDASGDLYTTSSQLTLPATQCPDGKSVTCHVKHYTNPSQDVTVPCPVPPPPPCCHPRLSLHRPALEDLLLGSEANLTCTLTGLRDASGATFTWTPSSGKSAVQGPPERDLCGCYSVSSVLPGCAQPWNHGETFTCTAAHPELKTPLTANITKSGNTFRPEVHLLPPPSEELALNELVTLTCLARGFSPKDVLVRWLQGSQELPREKYLTWASRQEPSQGTTTFAVTSILRVAAEDWKKGDTFSCMVGHEALPLAFTQKTIDRLAGKPTHVNVSVVMAEVDGTCY
light: QIVLSQSPAVLFASPGEKVTMTCRARSSVSYMDWYQQKPRSSPKPWIYATSNLASGVPARFSGSGSGTSYSLTISRVEAEDAATYYCQQWTSNPPTFGSGTKLEIKRTVAAPSVFIFPPSDEQLKSGTASVVCLLNNFYPREAKVQWKVDNALQSGNSQESVTEQDSKDSTYSLSSTLTLSKADYEKHKVYACEVTHQGLSSPVTKSFNRGEC
notes: Monomeric human IgA2(m1) constant region (pEE14.4-IgA2(m1)) and human kappa light chain; also called IgA2-CD20 mAb; IgA2-CD20 UMAB001

binding result (human CD20 [2]): binds
B8: IgG1-CD20-2 with the L11V mutation (antibody)
heavy: not shown
light: QIVLSQSPAILSASPGEKVTMTCRASSSVSYMHWYQQKPGSSPKPWIYATSNLASGVPARFSGSGSGTSYSLTISRVEAADAATYYCHQWTFNPPTFGGGTKLEIKRTVAAPSVFIFPPSDEQLKSGTASVVCLLNNFYPREAKVQWKVDNALQSGNSQESVTEQDSKDSTYSLSSTLTLSKADYEKHKVYACEVTHQGLSSPVTKSFNRGEC
notes: Chimeric human IgG1/kappa; leucine to valine at Kabat position 11 of the VH framework; also called IgG1-CD20-2 L11V

Kd (human CD20 [4]): 0.21 nM
koff (human CD20 [4]): 1.77e-05 s⁻¹
kon (human CD20 [4]): 85400 M⁻¹ s⁻¹
Kd (human CD20 [5]): 0.96 nM
koff (human CD20 [5]): 7.8e-05 s⁻¹
kon (human CD20 [5]): 81700 M⁻¹ s⁻¹
B9: m2 (mIgG2c-CD20 mAb) (antibody, V domains shown)
VH: QAYLQQSGAELVRPGASVKMSCKASGYTFTSYNMHWVKQTPRQGLEWIGGIYPGNGDTSYNQKFKGKATLTVDKSSSTAYMQLSSLTSEDSAVYFCARYYYGSSYGAMDYWGQGTSVTVSS
VL: QIVLSQSPAILSASPGEKVTMTCRASSSVSYMHWYQQKPGSSPKPWIYATSNLASGVPARFSGSGSGTSYSLTISRVEAADAATYYCHQWTFNPPTFGGGTKLEIK
modifications: FITC- or Alexa647-labelled in the kinetic assays; label sites not given
notes: Mouse IgG2c hybridoma mAb; FITC- or Alexa647-labeled in the kinetic assays

Kd (human CD20 [4]): 0.25 nM
koff (human CD20 [4]): 1.13e-05 s⁻¹
kon (human CD20 [4]): 45700 M⁻¹ s⁻¹
Kd (human CD20 [5]): 0.12 nM
koff (human CD20 [5]): 6.53e-06 s⁻¹
kon (human CD20 [5]): 53900 M⁻¹ s⁻¹
B11: m9 (mIgG2c-CD20 mAb) (antibody, V domains shown)
VH: QAYLQQSGAELVRPGASVKMSCKASGYTFPSYNMHWVKQTPRQGLEWIGAIYPGNGDTSYNQKFKGKASQTVDKSSSTVYMQLSSLTSADSAVYFCARSRLFDSSYGWYFDVWGTGTTVTVSS
VL: QIVLSQSPAILSAYPGEKVTMTCRARSSVSYIDWYQQKAGSSPKPWIYATSNLASGVPARFSGSGSGTSYSLTISRVEAEDAATYYCQQWTSNPPTFGGGTKLEIK
modifications: FITC-labelled antibody in the LigandTracer assay; the label positions are not defined.
notes: as for B10
